According to patent US20150086574A1 (CELLERANT THERAPEUTICS, published 2015):

B1: 8.16C10 (antibody, IgG1, V domains shown)
VH: QIQLQQSGPELVKPGASVKISYKASGYTFTDYYINWVKQKPGQGLEWIGWIYPGSGITKYNEKFKGKATLTVDSSSSTAYMQLSSLTSEDTAVYFCAIYGYDGGYAMDYWGQGTSVTVSS
VL: QIVLTQSPAIMSASPGEKVTLTCSASSSVSSSYLYWYQQKPGSSPKLWIYSTSNLASGVPARFSGGGSGTSYSLTISSMEAEDAASYFCHQWSTYPYTFGGGTKLEIKR

What was measured:
[1] = molecular target: T cell Immunoglobulin- and Mucin domain-containing molecule 3 (TIM3), human, on cells (human) (UniProt Q8TDQ0); assay: flow cytometry, PBMCs of AML patient 3, CD34+CD38- population
[2] = molecular target: T cell Immunoglobulin- and Mucin domain-containing molecule 3 (TIM3), human, on cells (human) (UniProt Q8TDQ0); assay: flow cytometry, PBMCs of AML patient 2, Blast population
[3] = molecular target: T cell Immunoglobulin- and Mucin domain-containing molecule 3 (TIM3), human, on cells (human) (UniProt Q8TDQ0); assay: flow cytometry, PBMCs of AML patient 3, Blast population
[4] = molecular target: T cell Immunoglobulin- and Mucin domain-containing molecule 3 (TIM3), human, on cells (human) (UniProt Q8TDQ0); assay: flow cytometry, PBMCs of AML patient 1, Blast population
[5] = molecular target: T cell Immunoglobulin- and Mucin domain-containing molecule 3 (TIM3), human, on cells (human) (UniProt Q8TDQ0); assay: flow cytometry, PBMCs of AML patient 2, CD34+CD38- population
[6] = molecular target: T cell Immunoglobulin- and Mucin domain-containing molecule 3 (TIM3), human, on cells (human) (UniProt Q8TDQ0); assay: flow cytometry, PBMCs of AML patient 1, CD34+CD38- population
[7] = molecular target: T cell Immunoglobulin- and Mucin domain-containing molecule 3 (TIM3), human, on cells (human) (UniProt Q8TDQ0); assay: flow cytometry, bone marrow cells of AML patient 2, CD34+CD38- population
[8] = molecular target: T cell Immunoglobulin- and Mucin domain-containing molecule 3 (TIM3), human, on cells (human) (UniProt Q8TDQ0); assay: flow cytometry, CD34+ cells from a set of AML samples
[9] = molecular target: T cell Immunoglobulin- and Mucin domain-containing molecule 3 (TIM3), human, on cells (human) (UniProt Q8TDQ0); assay: cell binding (flow cytometry), Daudi cells
[10] = molecular target: T cell Immunoglobulin- and Mucin domain-containing molecule 3 (TIM3), human, on cells (human) (UniProt Q8TDQ0); assay: cell binding (flow cytometry), Pfeiffer cells
[11] = molecular target: T cell Immunoglobulin- and Mucin domain-containing molecule 3 (TIM3), human, on cells (human) (UniProt Q8TDQ0); assay: flow cytometry; cells not named in the table (Example 5 uses Pfeiffer cells)
[12] = molecular target: T cell Immunoglobulin- and Mucin domain-containing molecule 3 (TIM3), human, on cells (human) (UniProt Q8TDQ0); assay: cell binding (flow cytometry), CMK cells
[13] = molecular target: T cell Immunoglobulin- and Mucin domain-containing molecule 3 (TIM3), human, on cells (human) (UniProt Q8TDQ0); assay: flow cytometry, bone marrow cells of AML patient 2, Blast population
[14] = molecular target: T cell Immunoglobulin- and Mucin domain-containing molecule 3 (TIM3), human, on cells (human) (UniProt Q8TDQ0); assay: flow cytometry, bone marrow cells of AML patient 1, Blast population
[15] = molecular target: T cell Immunoglobulin- and Mucin domain-containing molecule 3 (TIM3), human, on cells (human) (UniProt Q8TDQ0); assay: flow cytometry, PBMCs of AML patient 4, CD34+CD38- population
[16] = molecular target: T cell Immunoglobulin- and Mucin domain-containing molecule 3 (TIM3), human, on cells (human) (UniProt Q8TDQ0); assay: flow cytometry, PBMCs of AML patient 5, Blast population
[17] = molecular target: T cell Immunoglobulin- and Mucin domain-containing molecule 3 (TIM3), human, on cells (human) (UniProt Q8TDQ0); assay: cell-based or functional assay
[18] = molecular target: T cell Immunoglobulin- and Mucin domain-containing molecule 3 (TIM3), human, on cells (human) (UniProt Q8TDQ0); assay: flow cytometry, PBMCs of AML patient 5, CD34+CD38- population
[19] = molecular target: T cell Immunoglobulin- and Mucin domain-containing molecule 3 (TIM3), human, on cells (human) (UniProt Q8TDQ0); assay: flow cytometry, bone marrow cells of AML patient 1, CD34+CD38- population
[20] = molecular target: T cell Immunoglobulin- and Mucin domain-containing molecule 3 (TIM3), human, on cells (human) (UniProt Q8TDQ0); assay: flow cytometry, PBMCs of AML patient 4, Blast population

Chain of T cell Immunoglobulin- and Mucin domain-containing molecule 3 (TIM3), human, on cells (human) (Q8TDQ0 22-301 limits assumed): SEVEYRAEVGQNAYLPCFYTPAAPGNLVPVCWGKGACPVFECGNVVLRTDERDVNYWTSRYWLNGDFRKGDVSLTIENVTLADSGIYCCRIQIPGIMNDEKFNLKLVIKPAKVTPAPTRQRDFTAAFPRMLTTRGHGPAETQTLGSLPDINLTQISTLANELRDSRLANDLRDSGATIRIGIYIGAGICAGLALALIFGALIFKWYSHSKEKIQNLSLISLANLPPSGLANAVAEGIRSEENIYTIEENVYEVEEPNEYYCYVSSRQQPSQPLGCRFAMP

Molecule	percent binding [1]	percent binding [2]	percent binding [3]	percent binding [4]	percent binding [5]	percent binding [6]	percent binding [7]	percentage of cell binding [9]	percentage of cell binding [10]	% Positive for TIM3 [11]	GeoMean (Intensity of TIM3 binding) [11]	percent binding [13]	further results
TIM3 2E2 (antibody)	0.17%	59.3%	1.01%	2.92%	64.8%	3.26%	1.6%	90%	97%	89.9%	198	1.8%	Positive/total (AML samples whose CD34+ cells were bound) (of 14 samples) [8]: 0; Geomean [10]: 308; percentage of cell binding [12]: 19%
B1	0.49%	68.1%	0.83%	3.13%	76.4%	4.67%	1.47%	67%	85%	92.5%	83.8	2.61%	percent binding [14]: 55.6%; percent binding [15]: 87%; percent binding [16]: 25%; IFN-gamma release from activated CD4+ T cells (ELISA), antibody at 5 ug/ml (fold reduction) [17]: > 2; IL-6 release from activated CD4+ T cells (ELISA), antibody at 5 ug/ml (fold reduction) [17]: > 2; percent of antibody internalized after 20 minutes, Pfeiffer cells [17]: > 50%; percent binding [18]: 25%; percent binding [19]: 19.2%; percent binding [20]: 78%
